The values that follow come from PMC11272940, “UNC-45 assisted myosin folding depends on a conserved FX3HY motif implicated in Freeman Sheldon Syndrome” (Nature Communications, 2024).

The labels stand for the following.
B1: C. elegans myosin motor domain MHC-B (1-790), wildtype (domain or fragment, UniProt P02566 1-790, looked up)
chain: MEHEKDPGWQYLRRTREQVLEDQSKPYDSKKNVWIPDPEEGYLAGEITATKGDQVTIVTARGNEVTLKKELVQEMNPPKFEKTEDMSNLSFLNDASVLHNLRSRYAAMLIYTYSGLFCVVINPYKRLPIYTDSCARMFMGKRKTEMPPHLFAVSDEAYRNMLQDHENQSMLITGESGAGKTENTKKVICYFAAVGASQQEGGAEVDPNKKKVTLEDQIVQTNPVLEAFGNAKTVRNNNSSRFGKFIRIHFNKHGRLASCDIEHYLLEKSRVIRQAPGERCYHIFYQIYSDFRPELKKELLLDLPIKDYWFVAQAELIIDGIDDVEEFQLTDEAFDILNFSAVEKQDCYRLMSAHMHMGNMKFKQRPREEQAEPDGTDEAEKASNMYGIGCEEFLKALTKPRVKVGTEWVSKGQNCEQVNWAVGAMAKGLYSRVFNWLVKKCNLTLDQKGIDRDYFIGVLDIAGFEIFDFNSFEQLWINFVNEKLQQFFNHHMFVLEQEEYAREGIQWVFIDFGLDLQACIELIEKPLGIISMLDEECIVPKATDLTLASKLVDQHLGKHPNFEKPKPPKGKQGEAHFAMRHYAGTVRYNCLNWLEKNKDPLNDTVVSAMKQSKGNDLLVEIWQDYTTQEEAAAKAKEGGGGGKKKGKSGSFMTVSMLYRESLNNLMTMLNKTHPHFIRCIIPNEKKQSGMIDAALVLNQLTCNGVLEGIRICRKGFPNRTLHPDFVQRYAILAAKEAKSDDDKKKCAEAIMSKLVNDGSLSEEMFRIGLTKVFFKAGVLAHLEDIRDEKL
notes: MHC-B muscle myosin (Myo4_Cel), C. elegans, motor domain residues 1-790; the state is told by the assay; also called MHC (1-790); Myo4_Cel; source: High Five insect cells, baculovirus; purified (Ni-NTA, SEC) alone or as a complex with UNC-45; not shown: His6, C-terminal, kept
B2: Myo4 peptide (residues 561–573) (peptide)
peptide: WKFIVSHYAVDVEY
notes: tryptophan introduced at the N-terminus for peptide quantification; also called myosin peptide; core of the myosin motif; source: synthetic peptide (in-house, HPLC purified)
B3: Full length C. elegans UNC-45 (from E. coli) (natural protein, UniProt G5EG62 1-961, looked up)
chain: MVARVQTAEEIRDEGNAAVKDQDYIKADELYTEALQLTTDEDKALRPVLYRNRAMARLKRDDFEGAQSDCTKALEFDGADVKALFRRSLAREQLGNVGPAFQDAKEALRLSPNDKGIVEVLQRLVKANNDKIKQTTSLANKVTDMEKLAFRGEAKDTEQKMTALNNLLVLCRESESGATGVWNQGALVPFVLNLINDASENEEVTVTAIRILDETIKNSVRCMKFLAMHDPDGPKSVRFVCRLMCKKSTKDFVDATGILVQRVFNAMAKMDRQKEMKPDPEVAEANKIWIIRVLLELQEMLQDPKVGAVQRETCIDLFLKNLMHMDGGIPRGWSWKFVEERGLLALLDVASQIPELCEYPVSAETRQHVAICLQRLEEDMVFDTKRTIFKEKVDMFFNALISRCTNDDEGHKYRIKLSCFLITMLQGPVDIGINLITNDQLTPIMLEMAASQDHLMQGIAAELIVATVSKHERAINMLKVGIPVLRALYDSEDPTVKVRALVGLCKIGAAGGDDISKATMKEEAVISLAKTCKKFLLETEKYSVDIRRYACEGLSYLSLDADVKEWIVDDSLLLKALVLLAKKAGALCVYTLATIYANLSNAFEKPKVDEEMVKLAQFAKHHVPETHPKDTEEYVEKRVRALVEEGAVPACVAVSKTESKNALELIARSLLAFAEYEDLRGRIIAEGGTVLCLRLTKEASGEGKIKAGHAIAKLGAKADPMISFPGQRAYEVVKPLCDLLHPDVEGKANYDSLLTLTNLASVSDSIRGRILKEKAIPKIEEFWFMTDHEHLRAAAAELLLNLLFFEKFYEETVAPGTDRLKLWVLYSAEVEEERLSRASAAGFAILTEDENACARIMDEIKSWPEVFKDIAMHEDAETQRRGLMGIANIMHSSNKLCSEIVSSEVFRVLVAVTKLGTINQERAGSTEQAKRGLEAAEKFGLIKATDREIYERENQMSTIQE
notes: UNC-45 chaperone, C. elegans; The C-terminal Strep tag is stated for the peptide spot assay; also called wildtype UNC-45; purified UNC-45; source: E. coli, purified (HisTrap or StrepTrap, SEC); not shown: Strep, C-terminal, kept

The target of series [1] is T1, C. elegans UNC-45 (co-expressed with the MHC-B motor domain in insect cells) (C. elegans, UniProt G5EG62 1-961).
T1 construct: UNC-45 chaperone, C. elegans; also called UNC-45 WT; wildtype UNC-45; source: High Five insect cells, baculovirus, co-expressed with myosin; purified as a complex (HisTrap, Strep-Tactin, SEC); in cleared lysate in the solubility assay
T1 sequence: B3 chain
Briefly: tandem affinity co-purification + SEC; co-expressed in insect cells; HisTrap (myosin) then Strep-Tactin (UNC-45), then Superdex 200 in 20 mM HEPES pH 8.0, 150 mM NaCl. Conditions: partners not purified.

Series [2] deals with B3. Kind of series: cross-linking; XL-MS of the in vitro reconstituted UFD-2:UNC-45:myo^UF complex; 0.25 mM DSS, 20 mM HEPES pH 8.0, 150 mM NaCl, 25 °C, 30 min. The conditions noted are these: both partners purified.
The target of series [3] is T2, Kluyveromyces lactis SHE4, wildtype (Kluyveromyces lactis).
T2 chain: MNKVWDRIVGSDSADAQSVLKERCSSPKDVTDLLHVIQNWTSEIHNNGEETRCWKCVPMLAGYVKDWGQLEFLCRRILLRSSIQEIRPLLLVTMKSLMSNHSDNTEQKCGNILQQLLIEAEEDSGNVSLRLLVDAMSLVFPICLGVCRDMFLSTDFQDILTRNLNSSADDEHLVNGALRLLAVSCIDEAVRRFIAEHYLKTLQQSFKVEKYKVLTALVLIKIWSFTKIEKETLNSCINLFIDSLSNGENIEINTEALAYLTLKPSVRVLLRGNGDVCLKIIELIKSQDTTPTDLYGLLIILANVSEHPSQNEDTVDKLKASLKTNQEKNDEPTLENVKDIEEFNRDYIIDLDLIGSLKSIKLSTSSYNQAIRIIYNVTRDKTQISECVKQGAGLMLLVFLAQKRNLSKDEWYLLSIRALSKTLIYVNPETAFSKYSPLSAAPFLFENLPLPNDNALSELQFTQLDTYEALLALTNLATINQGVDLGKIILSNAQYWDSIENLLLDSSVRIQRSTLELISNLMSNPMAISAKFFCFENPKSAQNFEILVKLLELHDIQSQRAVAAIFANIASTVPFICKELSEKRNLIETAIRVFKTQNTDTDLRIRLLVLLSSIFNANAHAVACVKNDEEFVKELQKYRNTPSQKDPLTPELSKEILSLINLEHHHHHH
Kind of series: ITC; 25 °C, VP-ITC; 10 μM SHE4 in the cell, 90 μM (N475A: 107 μM) peptide in the syringe; 10 mM HEPES pH 8.0, 150 mM NaCl, 1 mM TCEP; single site model. Conditions: both partners purified.

In series [4] the target is T3, 547–588 myosin peptide (MHC-B) (C. elegans, UniProt P02566 547-588).
T3 construct: also called native peptide; identified myosin ligand; source: synthetic peptide
T3 peptide (looked up): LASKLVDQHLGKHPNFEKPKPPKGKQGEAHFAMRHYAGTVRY
Briefly: thermal shift assay; 1 μM UNC-45 or UNC-45 ΔUCS, 2 mM peptide, SYPRO Orange, 20 mM HEPES pH 8.0, 150 mM NaCl; triplicates. The conditions noted are these: both partners purified.

Take B1: the binding result in series [1] and in series [2] was “binds” each time.
What is called Kd is the concentration at which binding is half-saturated. As for B2, the Kd in series [3] is 0.6 µM.
On to B3, for which the “increase of melting temperature (Tm)” value in series [4] came to 5.5 °C.
